Experimental data taken from article PMC9278117.

Legend:
[1] = molecular target: CB6 monoclonal antibody; experiment: BLI
[2] = molecular target: 4A8 monoclonal antibody; experiment: BLI

Row | Substance | Kd [1] [nM] | Kd [2] [nM]
1 | S1-I53-50 NP (from UniProt P0DTC2 16-685) (complex) | < 0.001 | 0.0736
2 | S1-ferritin NP (from UniProt P0DTC2 16-685) (complex) | < 0.001 | 1.18
3 | S1-mi3 NP (from UniProt P0DTC2 16-685) (complex) | < 0.001 | < 0.001
